These results are taken from the supplement of paper PMC10724198.

± gives the standard deviation of the averaged measurements.
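Further: PSI is a weighted mean of sequencing reads over stability bins, variants kept only with over 10 reads, mCherry proximal and sfGFP distal, peptide attached via GGGS linker.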

In this data set the test system is Saccharomyces cerevisiae. Kind of data set: protein stability index of tFT-peptide fusion (C-terminal peptide) (PSI (0-1 scale)); higher = more stable (slower turnover). To be noted: genetic background: wild type; temperature: 30 C. As to the method:
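Multiplexed protein stability (MPS) profiling in S. cerevisiae. Random 12-aa peptides (tFT-X12 library) are fused to the C-terminus of a sfGFP-mCherry tandem fluorescent timer, after mCherry and a GGGS linker. Cells are FACS-sorted into 8 mCherry/sfGFP bins and deep-sequenced. The protein stability index (PSI) is the read-weighted bin average, scaled from 0 (unstable) to 1 (stable). Only peptides with >10 reads are reported; cells were grown at 30 °C in SC-His with glucose.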
In turn, ESYGIVEEGVYS yielded a protein stability index of 0.652 ± 0.082.

Take ETKRRQEQNIVR: the protein stability index was found to be 0.721 ± 0.082.

Sequence ETKSDRHDRTGT yielded a protein stability index of 0.655 ± 0.015.

As to ETVNGVGSRWGF, the protein stability index was 0.741 ± 0.1.

In the case of EVALDRLKNRGG, the protein stability index was found to be 0.671 ± 0.028.

EVCPRGIAGGVV displayed a protein stability index of 0.678 ± 0.013.

EVDHLPHQVFRY: the protein stability index worked out at 0.6671 ± 0.0021.

EVERKNKESGKI showed a protein stability index of 0.717 ± 0.011.

Sequence EVGMDLTTGPIS registered a protein stability index of 0.619 ± 0.056.

EVGQYVEWSCLL displayed a protein stability index of 0.671 ± 0.019.

EVLFWRGVSRME had a protein stability index of 0.725 ± 0.16.

Take EVRWIGLPMCTS: the protein stability index came to 0.6524 ± 0.0023.

Consider EVVFVARSGSGV, for which the protein stability index is 0.654 ± 0.008.

On to EVVRTWAVVEGG, for which the protein stability index is 0.646 ± 0.11.

EWGDLDGRGEPR showed a protein stability index of 0.74 ± 0.0075.

EYGQTDENKMRM yielded a protein stability index of 0.687 ± 0.096.

EYIWLSLGSVYI: the protein stability index is 0.624 ± 0.05.

Regarding EYRKSVERLRVD, the protein stability index worked out at 0.687 ± 0.053.

EYTIKTENKYKI: the protein stability index was found to be 0.747 ± 0.13.

EYVKFGMEHILE came in with a protein stability index of 0.675 ± 0.024.

In turn, FAFRGFLIGCGV gave a protein stability index of 0.54 ± 0.011.

Turning to FAGAEFCGPVGV, the protein stability index is 0.629 ± 0.0024.

In turn, FAKLDRVGACRW returned a protein stability index of 0.764 ± 0.013.

The sequence FALSSSLIRAFL gave a protein stability index of 0.726 ± 0.00088.

Turning to FALYVHHSLSFG, the protein stability index came to 0.685 ± 0.02.

As for FCGACFRGDVLV, the protein stability index came out at 0.67 ± 0.017.

As to FCGGSWTDGFGW, the protein stability index was found to be 0.737 ± 0.028.

In the case of FCGLCCDPNRVP, the protein stability index was 0.708 ± 0.036.

Take FCHLGSPATDFR: the protein stability index came out at 0.646 ± 0.013.

The sequence FCIRLFLLPLCP gave a protein stability index of 0.5869 ± 0.0055.

FCLDLLVGLVFL showed a protein stability index of 0.546 ± 0.035.

Regarding FCLGPSLSSSSL, the protein stability index came to 0.714 ± 0.027.

With FCLGWWVAVCGL, the protein stability index turned out to be 0.487 ± 0.04.

In turn, FCPPLAFPPPLS returned a protein stability index of 0.743 ± 0.028.

In turn, FCSMLPSHLPEA gave a protein stability index of 0.6972 ± 0.0027.

In turn, FCYLCARMPYRS yielded a protein stability index of 0.662 ± 0.13.

For FDAWSLASASLV, the protein stability index is 0.741 ± 0.036.

FDSGLTTHQRDA came in with a protein stability index of 0.686 ± 0.029.

Regarding FDSVAVLYSGGV, the protein stability index was determined as 0.66 ± 0.0078.

FELEQNCESATS gave a protein stability index of 0.706 ± 0.013.

FELVEAAYISEE came in with a protein stability index of 0.626 ± 0.058.

The sequence FESFHLENRGEK came in with a protein stability index of 0.706 ± 0.04.

Sequence FESRDMVGWFGG showed a protein stability index of 0.674 ± 0.019.

FFCDFFYLSSHF displayed a protein stability index of 0.716 ± 0.019.

FFCILCAHWFPL returned a protein stability index of 0.589 ± 0.086.

The sequence FFFLPSPTFLPP had a protein stability index of 0.764 ± 0.046.

For FFGCVLRPCLRG, the protein stability index stood at 0.72 ± 0.0076.

The sequence FFGYLVDEGLWV registered a protein stability index of 0.738 ± 0.0084.

With FFKNAILFVSCE, the protein stability index was 0.548 ± 0.049.

Sequence FFLGAPVRQFFF yielded a protein stability index of 0.582 ± 0.011.

Take FFLLGRGVCLGA: the protein stability index is 0.663 ± 0.054.

For FFLRNRPPLCGQ, the protein stability index was 0.665 ± 0.012.

As for FFLSSLFPSFSS, the protein stability index was found to be 0.796 ± 0.044.

With FFRDDNRDHKRT, the protein stability index was determined as 0.689 ± 0.017.

Sequence FFSFYPVYPLSA came in with a protein stability index of 0.527 ± 0.021.

FFSLISVFCPYP: the protein stability index was 0.533 ± 0.065.

For the sequence FFWFFFLRFLFS, the protein stability index was 0.568 ± 0.031.

Take FGAGVWVGRVGG: the protein stability index is 0.649 ± 0.048.

In turn, FGARKVELRWMV came in with a protein stability index of 0.53 ± 0.0092.

The sequence FGCLGVLGSGRC had a protein stability index of 0.728 ± 0.037.

For FGGMSGVLFRMV, the protein stability index amounted to 0.663 ± 0.054.

With FGLSVSSMSWNL, the protein stability index amounted to 0.714 ± 0.0078.

Consider FGLVYCSGLTVS, for which the protein stability index was found to be 0.54 ± 0.0079.

Sequence FGSPVGSAGSCF yielded a protein stability index of 0.647 ± 0.095.
